Experimental data taken from the Human Domainome abundance scans (Beltran et al. 2025).
± gives the uncertainty stated by the source.

B1: Ankyrin-1, residues 1405 to 1484; numbered along this chain, P16157 (parent)
chain: MKMAVISEHLGLSWAELARELQFSVEDINRIRVENPNSLLEQSVALLNLWVIREGQNANMENLYTALQSIDRGEIVNMLE

Variants of: B1
Assay: abundance fitness (aPCA) (normalised: wild type 0, dead -1); higher = more abundant; growth selection in yeast, the domain comes from the species named
Settings: Homo sapiens

Row | Variant | abundance fitness
1 | MKMAVISEHLGLSWAELARELWFSVEDINRIRVENPNSLLEQSVALLNLWVIREGQNANMENLYTALQSIDRGEIVNMLE [Q22W] | -0.506 ± 0.088
2 | MKMAVISEHLGLSWAELARELYFSVEDINRIRVENPNSLLEQSVALLNLWVIREGQNANMENLYTALQSIDRGEIVNMLE [Q22Y] | -0.187 ± 0.15
3 | MKMAVISEHLGLSWAELARELQCSVEDINRIRVENPNSLLEQSVALLNLWVIREGQNANMENLYTALQSIDRGEIVNMLE [F23C] | -0.51 ± 0.16
4 | MKMAVISEHLGLSWAELARELQESVEDINRIRVENPNSLLEQSVALLNLWVIREGQNANMENLYTALQSIDRGEIVNMLE [F23E] | -0.911 ± 0.35
5 | MKMAVISEHLGLSWAELARELQHSVEDINRIRVENPNSLLEQSVALLNLWVIREGQNANMENLYTALQSIDRGEIVNMLE [F23H] | -0.829 ± 0.36
6 | MKMAVISEHLGLSWAELARELQISVEDINRIRVENPNSLLEQSVALLNLWVIREGQNANMENLYTALQSIDRGEIVNMLE [F23I] | 0 ± 0.1
7 | MKMAVISEHLGLSWAELARELQKSVEDINRIRVENPNSLLEQSVALLNLWVIREGQNANMENLYTALQSIDRGEIVNMLE [F23K] | -0.786 ± 0.18
8 | MKMAVISEHLGLSWAELARELQLSVEDINRIRVENPNSLLEQSVALLNLWVIREGQNANMENLYTALQSIDRGEIVNMLE [F23L] | -0.443 ± 0.061
9 | MKMAVISEHLGLSWAELARELQMSVEDINRIRVENPNSLLEQSVALLNLWVIREGQNANMENLYTALQSIDRGEIVNMLE [F23M] | -0.693 ± 0.14
10 | MKMAVISEHLGLSWAELARELQNSVEDINRIRVENPNSLLEQSVALLNLWVIREGQNANMENLYTALQSIDRGEIVNMLE [F23N] | -1.02 ± 0.32
11 | MKMAVISEHLGLSWAELARELQPSVEDINRIRVENPNSLLEQSVALLNLWVIREGQNANMENLYTALQSIDRGEIVNMLE [F23P] | -0.918 ± 0.21
12 | MKMAVISEHLGLSWAELARELQQSVEDINRIRVENPNSLLEQSVALLNLWVIREGQNANMENLYTALQSIDRGEIVNMLE [F23Q] | -0.883 ± 0.24
13 | MKMAVISEHLGLSWAELARELQRSVEDINRIRVENPNSLLEQSVALLNLWVIREGQNANMENLYTALQSIDRGEIVNMLE [F23R] | -0.833 ± 0.085
14 | MKMAVISEHLGLSWAELARELQTSVEDINRIRVENPNSLLEQSVALLNLWVIREGQNANMENLYTALQSIDRGEIVNMLE [F23T] | -0.908 ± 0.31
15 | MKMAVISEHLGLSWAELARELQVSVEDINRIRVENPNSLLEQSVALLNLWVIREGQNANMENLYTALQSIDRGEIVNMLE [F23V] | -0.144 ± 0.067
16 | MKMAVISEHLGLSWAELARELQWSVEDINRIRVENPNSLLEQSVALLNLWVIREGQNANMENLYTALQSIDRGEIVNMLE [F23W] | -0.964 ± 0.17
17 | MKMAVISEHLGLSWAELARELQYSVEDINRIRVENPNSLLEQSVALLNLWVIREGQNANMENLYTALQSIDRGEIVNMLE [F23Y] | -0.478 ± 0.12

Row | Variant | abundance fitness
18 | MKMAVISEHLGLSWAELARELQFAVEDINRIRVENPNSLLEQSVALLNLWVIREGQNANMENLYTALQSIDRGEIVNMLE [S24A] | -0.213 ± 0.056
19 | MKMAVISEHLGLSWAELARELQFCVEDINRIRVENPNSLLEQSVALLNLWVIREGQNANMENLYTALQSIDRGEIVNMLE [S24C] | -0.39 ± 0.17
20 | MKMAVISEHLGLSWAELARELQFEVEDINRIRVENPNSLLEQSVALLNLWVIREGQNANMENLYTALQSIDRGEIVNMLE [S24E] | -0.067 ± 0.069
21 | MKMAVISEHLGLSWAELARELQFFVEDINRIRVENPNSLLEQSVALLNLWVIREGQNANMENLYTALQSIDRGEIVNMLE [S24F] | -0.837 ± 0.36
22 | MKMAVISEHLGLSWAELARELQFGVEDINRIRVENPNSLLEQSVALLNLWVIREGQNANMENLYTALQSIDRGEIVNMLE [S24G] | -0.23 ± 0.054
23 | MKMAVISEHLGLSWAELARELQFHVEDINRIRVENPNSLLEQSVALLNLWVIREGQNANMENLYTALQSIDRGEIVNMLE [S24H] | -0.429 ± 0.18
24 | MKMAVISEHLGLSWAELARELQFKVEDINRIRVENPNSLLEQSVALLNLWVIREGQNANMENLYTALQSIDRGEIVNMLE [S24K] | -0.147 ± 0.099
25 | MKMAVISEHLGLSWAELARELQFLVEDINRIRVENPNSLLEQSVALLNLWVIREGQNANMENLYTALQSIDRGEIVNMLE [S24L] | -0.776 ± 0.12
26 | MKMAVISEHLGLSWAELARELQFMVEDINRIRVENPNSLLEQSVALLNLWVIREGQNANMENLYTALQSIDRGEIVNMLE [S24M] | -0.487 ± 0.12
27 | MKMAVISEHLGLSWAELARELQFPVEDINRIRVENPNSLLEQSVALLNLWVIREGQNANMENLYTALQSIDRGEIVNMLE [S24P] | -0.209 ± 0.056
28 | MKMAVISEHLGLSWAELARELQFQVEDINRIRVENPNSLLEQSVALLNLWVIREGQNANMENLYTALQSIDRGEIVNMLE [S24Q] | -0.195 ± 0.088
29 | MKMAVISEHLGLSWAELARELQFRVEDINRIRVENPNSLLEQSVALLNLWVIREGQNANMENLYTALQSIDRGEIVNMLE [S24R] | -0.25 ± 0.051
30 | MKMAVISEHLGLSWAELARELQFTVEDINRIRVENPNSLLEQSVALLNLWVIREGQNANMENLYTALQSIDRGEIVNMLE [S24T] | -0.191 ± 0.088
31 | MKMAVISEHLGLSWAELARELQFVVEDINRIRVENPNSLLEQSVALLNLWVIREGQNANMENLYTALQSIDRGEIVNMLE [S24V] | -0.722 ± 0.097
32 | MKMAVISEHLGLSWAELARELQFWVEDINRIRVENPNSLLEQSVALLNLWVIREGQNANMENLYTALQSIDRGEIVNMLE [S24W] | -0.925 ± 0.25
33 | MKMAVISEHLGLSWAELARELQFYVEDINRIRVENPNSLLEQSVALLNLWVIREGQNANMENLYTALQSIDRGEIVNMLE [S24Y] | -0.856 ± 0.26
34 | MKMAVISEHLGLSWAELARELQFSAEDINRIRVENPNSLLEQSVALLNLWVIREGQNANMENLYTALQSIDRGEIVNMLE [V25A] | 0.028 ± 0.05
